Reference: US20230322952A1 (BIOMUNEX PHARMACEUTICALS, published 2023)

T1: CD19 expressed on the cell surface of tumor cells (UniProt P15391 20-556, limits assumed)
T1 sequence (looked up): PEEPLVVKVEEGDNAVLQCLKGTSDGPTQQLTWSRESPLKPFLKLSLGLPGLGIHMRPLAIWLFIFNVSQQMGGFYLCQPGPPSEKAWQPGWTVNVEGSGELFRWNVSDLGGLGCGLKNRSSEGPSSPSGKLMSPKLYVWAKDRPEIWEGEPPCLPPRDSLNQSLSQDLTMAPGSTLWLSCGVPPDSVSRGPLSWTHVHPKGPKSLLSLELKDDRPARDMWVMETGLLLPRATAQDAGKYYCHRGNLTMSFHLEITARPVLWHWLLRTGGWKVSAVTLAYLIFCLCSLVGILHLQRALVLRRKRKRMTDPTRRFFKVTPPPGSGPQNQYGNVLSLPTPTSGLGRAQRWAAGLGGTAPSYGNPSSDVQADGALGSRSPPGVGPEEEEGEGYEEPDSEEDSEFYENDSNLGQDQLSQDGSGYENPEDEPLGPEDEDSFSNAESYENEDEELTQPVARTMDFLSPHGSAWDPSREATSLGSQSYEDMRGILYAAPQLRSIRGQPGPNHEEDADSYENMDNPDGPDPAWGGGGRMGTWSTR


Tests used:
[1] = target: T1, CD19 expressed on the cell surface of …; test: cell-based or functional assay
[2] = target: T2, Vα7.2 TCR chain expressed on Vα7.2+CD8+ MAIT cells (human); test: flow cytometry on Vα7.2+ cells among human CD8+ T cells
T2 construct: whole, on cells; also called TCR Vα7.2 chain; Vα7.2+ cells
T2 sequence (A0A0B4J238 19-106): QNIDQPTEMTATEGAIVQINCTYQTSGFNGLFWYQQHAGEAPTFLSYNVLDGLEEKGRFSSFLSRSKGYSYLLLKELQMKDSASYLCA
Protocol: The anti-Vα7.2/anti-CD19 Fab-Fab was then tested for binding on Vα7.2+CD8⁺ T cells. The assay was performed by flow cytometry. Human CD8⁺ T cells were isolated from purified peripheral blood mononuclear cells (PBMCs). Briefly, leukapheresis packs coming from healthy donors were centrifuged in ficoll gradients and the PBMCs were collected. CD8⁺ T cells were then isolated with a commercial negative selection kit (Miltenyi Biotec). These cells were then used to determine binding of anti-Vα7.2/anti-CD19 […] on Vα7.2⁺ cells. Cells were washed with PBS and stained with a Fixable Viability Dye (eFluor™ 780, ThermoFisher) and the human Fc Block reagent (BD) (in PBS for 25 min at 4° C.). The cells were then washed with FACS buffer (PBS, 2 mM EDTA, 0.5% BSA) and stained with different concentrations of anti-Vα7.2/anti-CD19 Fab-Fab (Table 3, shown in both nM and μg/ml) for 1 h at 4° C. An irrelevant Fab-Fab was used as a negative control. Following washing (5×), the cells were stained with a secondary goat anti-human antibody conjugated with Phycoerythrin (Jackson Immunoresearch) and an anti-CD8 antibody (Biolegend) for 45 min at 4° C. The cells were then analyzed in the MACSquant flow cytometer.
Depending on the donor, Vα7.2⁺ cells range between 1 to 10% of CD8⁺ T cells.

Binder	percentage of CD19+ A-549 tumor cells lysis [1] [%]	EC50 [2] [nM]
anti-CD19/anti-Vα7.2 Fab-Fab (bispecific antibody) heavy: QVQLQQSGAELVRPGSSVKISCKASGYAFSSYWMNWVKQRPGQGLEWIGQIWPGDGDTNYNGKFKGKATLTADESSSTAYMQLSSLASEDSAVYFCARRETTTVGRYYYAMDYWGQGTTVTVSSASTKGPSVFPLAPSSKSTSGGTAALGCLVKDYFPEPVTVSWNSGALTSGVHTFPAVLQSSGLYSLSSVVDVPSSSLGTQTYICNVNHKPSNTKVDKRVEPKSCDKTHTAPPAPAPELLGGPAAPPAPAPAGGEVQLQQSGAELVKPGASVKLSCTASGFNIKDTHMHWVKQRPEQGLEWIGRTDPASGDTKYDPKFQGKATITADTSSNTAYLHLSSLTSEDTAVYYCAHYYRDDVNYAMDYWGQGTTVTVSSASTKGPSVFPQAPSSKSTSGGTAALGCLVKDYFPEPVTVSWNSGALTSGVHTFPAVLQSSGLYSLVSVVTVPSSSLGTQTYICNVNHKPSNTKVDKRVEPKSC light 1: not shown light 2: DIVMTQSQKFLSTSVGDRVSVTCKARQNVGSNVAWYQQKPGQSPKSLIYSSSFRYSGVPDRFTGSGSGTDFTLTISNVQSEDLAEYFCQQYNTYPYTFGGGTELEIKRTVAAPSVFIFPPSDEQLKSGTASVTCLLNNFYPREAKVQWKVDNALQSGNSQESVTEQDSKDSTYSLVSTLTLSKADYEKHKVYACEVTHQGLSSPVTKSFNRGEC	≤ 30	–
anti-CD19/anti-Vα7.2 BiXAb (bispecific antibody, human IgG1, kappa, L234A L235A) heavy: not shown light 1: not shown light 2: DIVMTQSQKFLSTSVGDRVSVTCKARQNVGSNVAWYQQKPGQSPKSLIYSSSFRYSGVPDRFTGSGSGTDFTLTISNVQSEDLAEYFCQQYNTYPYTFGGGTELEIKRTVAAPSVFIFPPSDEQLKSGTASVTCLLNNFYPREAKVQWKVDNALQSGNSQESVTEQDSKDSTYSLVSTLTLSKADYEKHKVYACEVTHQGLSSPVTKSFNRGEC	≤ 30	–
anti-Vα7.2/anti-CD19 BiXAb (bispecific antibody, human IgG1, kappa, L234A L235A) heavy: not shown light 1: not shown light 2: DIVMTQSQKFLSTSVGDRVSVTCKARQNVGSNVAWYQQKPGQSPKSLIYSSSFRYSGVPDRFTGSGSGTDFTLTISNVQSEDLAEYFCQQYNTYPYTFGGGTELEIKRTVAAPSVFIFPPSDEQLKSGTASVTCLLNNFYPREAKVQWKVDNALQSGNSQESVTEQDSKDSTYSLVSTLTLSKADYEKHKVYACEVTHQGLSSPVTKSFNRGEC	≤ 30	–
anti-Vα7.2/anti-CD19 Fab-Fab (bispecific antibody, Tandem Fab-Fab without Fc; anti-Vα7.2 Fab (from clone 3C10) at the N-terminus; also called Vα7.2/CD19 Fab-Fab) heavy: EVQLQQSGAELVKPGASVKLSCTASGFNIKDTHMHWVKQRPEQGLEWIGRTDPASGDTKYDPKFQGKATITADTSSNTAYLHLSSLTSEDTAVYYCAHYYRDDVNYAMDYWGQGTTVTVSSASTKGPSVFPQAPSSKSTSGGTAALGCLVKDYFPEPVTVSWNSGALTSGVHTFPAVLQSSGLYSLVSVVTVPSSSLGTQTYICNVNHKPSNTKVDKRVEPKSCDKTHTAPPAPAPELLGGPAAPPAPAPAGGQVQLQQSGAELVRPGSSVKISCKASGYAFSSYWMNWVKQRPGQGLEWIGQIWPGDGDTNYNGKFKGKATLTADESSSTAYMQLSSLASEDSAVYFCARRETTTVGRYYYAMDYWGQGTTVTVSSASTKGPSVFPLAPSSKSTSGGTAALGCLVKDYFPEPVTVSWNSGALTSGVHTFPAVLQSSGLYSLSSVVDVPSSSLGTQTYICNVNHKPSNTKVDKRVEPKSC light 1: not shown light 2: DIVMTQSQKFLSTSVGDRVSVTCKARQNVGSNVAWYQQKPGQSPKSLIYSSSFRYSGVPDRFTGSGSGTDFTLTISNVQSEDLAEYFCQQYNTYPYTFGGGTELEIKRTVAAPSVFIFPPSDEQLKSGTASVTCLLNNFYPREAKVQWKVDNALQSGNSQESVTEQDSKDSTYSLVSTLTLSKADYEKHKVYACEVTHQGLSSPVTKSFNRGEC	≤ 30	3.49
